How the values were obtained:
[1] = molecular target: T1, purified, catalytically inactive CNA/B containing CNA_(Trunc+H151Q) (UniProt Q08209 1-391; P63098 1-170, H151Q); test: fluorescence polarisation
Target sequence in this assay (Q08209 1-391 H151Q, chain 1 of 2): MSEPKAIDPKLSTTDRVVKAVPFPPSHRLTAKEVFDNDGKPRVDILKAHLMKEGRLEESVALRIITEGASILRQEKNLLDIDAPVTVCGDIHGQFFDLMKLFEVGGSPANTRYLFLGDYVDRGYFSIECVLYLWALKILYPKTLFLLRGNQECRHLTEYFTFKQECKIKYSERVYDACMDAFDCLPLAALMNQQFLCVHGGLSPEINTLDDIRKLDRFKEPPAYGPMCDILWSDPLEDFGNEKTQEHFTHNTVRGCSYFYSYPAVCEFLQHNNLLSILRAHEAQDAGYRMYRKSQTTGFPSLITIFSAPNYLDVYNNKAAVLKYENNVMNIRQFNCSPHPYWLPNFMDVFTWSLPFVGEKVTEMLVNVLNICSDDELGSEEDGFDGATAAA
Target sequence in this assay (P63098 whole entry, chain 2 of 2): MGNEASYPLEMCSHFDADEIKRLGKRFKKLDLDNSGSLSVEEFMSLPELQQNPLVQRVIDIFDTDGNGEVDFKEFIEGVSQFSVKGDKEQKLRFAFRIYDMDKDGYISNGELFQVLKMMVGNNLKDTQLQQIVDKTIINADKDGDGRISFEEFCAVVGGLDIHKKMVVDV

[2] = molecular target: T1, purified, catalytically inactive CNA/B …; test: NMR titration

| binding result [1] | binding result [2] | Binder |
| --- | --- | --- |
| binds | – | SHDEAPVLNDKHLDVPDIIITPPTPTGMML [CLMBWT peptide (residues 21-50), not phosphorylated, unlabeled] |
| – | binds | full-length CLMB (76 residues) expressed in E. coli (natural protein, uniformly ^15N-labeled in the NMR titrations; not phosphorylated) MGLKMSCLKGFQMCVSSSSSSHDEAPVLNDKHLDVPDIIITPPTPTGMMLPRDLGSTVWLDETGSCPDDGEIDPEA |
| binds | – | SHDEAPVLNDKHADAPDIIITPPTPTGMML (phosphothreonine at 44) [pCLMB_(LxVMut) peptide (residues 21-50, pThr44), unlabeled] |
